Measurements as given in paper PMC11305399, “FLT3/CD99 Bispecific Antibody–Based Nanoparticles for Acute Myeloid Leukemia” (Cancer Research Communications, 2024).

Target: Cluster of differentiation 99 (CD99) (Homo sapiens (Human)., UniProt P14209)
Assay: cell-based or functional assay

Sequence of Cluster of differentiation 99 (CD99) (P14209 23-185): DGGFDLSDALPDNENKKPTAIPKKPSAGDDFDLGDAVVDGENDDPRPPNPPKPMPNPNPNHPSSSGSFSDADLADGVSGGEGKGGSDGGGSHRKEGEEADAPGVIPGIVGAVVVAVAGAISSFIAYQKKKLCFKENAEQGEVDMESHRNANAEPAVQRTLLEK

phospho-SRC in MV4-11 cells at 24 hours (western blot), 25 μmol/L CD99-A192 vs. A192: 11 fold
B1: CD99-A192 (α-CD99 scFv fused to the amino-terminus of the elastin-like polypeptide A192) (scFv, V domains shown)
VH: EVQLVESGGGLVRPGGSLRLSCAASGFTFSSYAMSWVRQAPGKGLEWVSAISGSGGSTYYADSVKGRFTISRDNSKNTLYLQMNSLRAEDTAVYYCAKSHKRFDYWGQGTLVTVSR
VL: SSELTQDPAVSVALGQTVRITCQGDSLRSYYASWYQQKPGQAPVLVIYGKNNRPSGIPDRFSGSSSGNTASLTITGAQAEDEADYYCNSSFPRTSSVVFGGGTKLTVL
IC50 of cell viability (CCK-8) of MV4-11 cells, 72 hours: 400 nM
